Measured values as given in the supplement of paper PMC10567573.

B1: BTBD1 (parent)
chain: FVLGKGRGAAAAGGPQRIPAHRFV

Variants of: B1
Test: protein stability index of a GFP-peptide fusion (GPS, HEK-293T) (PSI 1-6); higher = more stable
Conditions: c terminus: a fixed tail appended
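Further: lentivirally expressed fusions sorted by FACS into six bins by GFP to DsRed ratio, PSI derived from sequencing read proportions per bin multiplied by bin number.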

Variant	protein stability index
I18D	2.16
I18Y	1.74
I18C	2.27
I18R	1.46
I18M	2.87
I18Q	2.03
I18P	2.12
I18F	1.93
I18N	2.12
I18W	1.91
V24K	2.12
V24T	2.84
V24Q	1.7
V24R	1.8
V24P	2.47
V24D	2.27
V24M	3
V24S	2.21
V24G	1.56
V24L	1.73
R7F	1.27
R7K	1.17
R7W	3.44
R7L	3.04

Variant	protein stability index
R7M	2.03
R7I	2.15
R7S	2.24
R7E	1.48
R7H	1.7
R7Q	1.82
R7D	1.49
R7Y	1.72
R7C	3.48
R7T	2.23
R7N	1.32
R7V	2.06
R7P	1.98
A10D	1.64
A10I	1.52
A10R	1.91
A10F	2.27
A10K	2.08
A10W	1.98
A10P	1.95
A10N	1.96
A10V	1.43
A10S	2
A10Y	1.79

Variant	protein stability index
A10Q	2.03
A10C	1.36
A10T	1.91
A10H	1.68
A10M	1.34
A10E	1.67
A10L	1.46
R17K	2.01
R17C	1.9
R17L	2.01
R17H	1.86
R17D	2.54
R17Q	1.92
R17W	1.41
R17I	3.15
R17Y	1.49
R17M	1.56
R17E	2.13
R17V	2.52
R17F	1.28
R17S	1.86
R17N	1.64
F23N	1.9
F23Q	2.19

Variant	protein stability index
F23K	3.99
F23R	1.25
F23E	2.04
F23Y	1.71
F23P	2.43
F23S	2.93
F23C	1.08
F23H	1.45
F23V	1.93
F23M	2.58
F23T	2.2
A9L	3.31
A9E	2.72
A9G	1.72
A9I	1.94
A9S	1.57
A9P	1.6
A9N	1.95
A9V	2.21
A9F	1.28
A9H	2.08
A9D	2.35
A9Y	1.87
A9T	1.96

Variant	protein stability index
A9C	2.47
A9K	1.92
H21V	2.72
H21L	2.61
H21F	4.04
H21N	1.88
H21Q	1.91
H21D	2.22
H21S	1.56
H21A	2.14
H21T	2.72
H21P	1.97
H21M	3.14
H21G	1.77
H21R	2.32
P15V	1.43
P15H	1.85
P15E	1.81
P15M	2.08
P15K	1.06
P15R	1.99
P15S	1.7
P15W	1.03
P15Q	1.5

Variant	protein stability index
P15Y	1.49
P15T	2
P15D	1.86
P15C	3.79
P15N	1.52
P15L	1.43
A11Y	1.63
A11R	1.41
A11C	2.71
A11T	1.52
A11K	1.77
A11D	1.14
A11H	1.96
A11W	2.84
A11N	1.71
A11F	1.04
A11P	1.5
A11S	2.58
A11V	1.28
A11M	1.73
A11I	1.87
A11L	1.31
A11E	1.94
A20Q	1.73

Variant	protein stability index
A20S	1.53
A20H	2.4
A20L	1.76
A20N	1.49
A20M	2.09
A20F	2.32
A20R	1.35
A20E	2.49
A20T	1.74
A20C	1.73
A20G	1.46
R22Q	1.84
R22D	2.35
R22M	4.76
R22T	5.22
R22V	2.14
R22N	2.53
R22H	1.72
R22G	1.08
R22L	2.3
R22S	1.36
R22K	1.82
G13N	2.57
G13R	1.41

Variant	protein stability index
G13K	1.16
G13Q	2
G13M	2.07
G13D	2.24
G13L	2.14
G13F	1.3
G13Y	1.57
G13S	2.15
G13P	1.75
G13I	2.25
G13V	1.36
G13E	2.31
G13H	1.71
G14D	2.64
G14I	1.26
G14V	1.9
G14S	2.64
G14L	2.15
G14Q	2.88
G14M	1.88
G14N	1.93
G14R	1.04
G14H	1.87
G14C	2.08

Variant	protein stability index
G14Y	1.07
G14K	2.83
P19E	1.78
P19L	1.5
P19I	2.16
P19S	1.31
P19D	1.53
P19V	1.26
P19T	1.88
P19A	1.34
P19Q	2.17
P19R	1.81
P19H	1.27
P19N	2.06
G6I	2.4
G6P	1.82
G6Q	1.91
G6K	1.69
G6S	1.44
G6Y	3.51
G6T	1.61
G6N	2.1
G6L	2.69
G6H	1.67

Variant	protein stability index
G6M	1.38
G6V	1.69
G6R	1.78
G8Q	1.48
G8A	1.33
G8L	1.69
G8Y	1.44
G8F	1.5
G8T	2
G8V	1.39
G8K	2.02
G8N	1.62
G8E	2.01
G8P	1.55
G8I	2.26
G8D	2.13
G8H	2.31
G8S	1.2
G8R	1.78
A12M	1.52
A12E	1.84
A12Y	1.16
A12W	2.86
A12Q	1.43

Variant	protein stability index
A12N	1.78
A12G	2.21
A12D	1.91
A12C	2.54
A12L	1.38
A12K	1.82
Q16E	1.67
Q16A	1.6
Q16V	2.31
Q16S	1.9
Q16P	1.86
Q16G	1.87
Q16M	2.2
Q16D	1.41
Q16N	2.54
Q16R	1.9
Q16T	1.39
Q16I	2.2
